Residue numbers refer to the chain shown, from its start. Numbers in names are those of the source.
B1: GlaTgs2-V34A: GlaTgs2 variant, valine at position 34 replaced by alanine, SEQ ID NO: 4 (protein, listed as Giardia lamblia)
chain: MSTWLLDSKCVERMKWLFSDLPEEKRVMIKMNEAAFFSVTPAVYADEVARMMRTVLALLGKPPYAVIDGTACVGGDTRLLAKHFDMTVAIERDPETYALLQDNLTTWGVDAKTISGDTAALIPQFWTLIGAVATFSLYLDPPWGGVDYRSQTDIQLTLGSLAVEDVVNRAFEAHLSMKLAVLKLPRNYNCGYLFRKLGKHEVFRITQGNFFVFFVARRGSRVKEHGRTAMLQLRKAREEAKARSEETKEDGETRGSGE
B2: GlaTgs2-V34G: GlaTgs2 variant, valine at position 34 replaced by glycine, SEQ ID NO: 5 (protein, listed as Giardia lamblia)
chain: B1 chain with A34G
B3: GlaTgs2-V34A, D76L: GlaTgs2 variant with exchanges V34A and D76L, SEQ ID NO: 7 (protein, listed as Giardia lamblia)
chain: B1 chain with D76T
B4: GlaTgs2-V34A, R92A: GlaTgs2 variant with exchanges V34A and R92A, SEQ ID NO: 10 (protein, listed as Giardia lamblia)
chain: B1 chain with R92A
B5: GlaTgs2-V34M: GlaTgs2 variant, valine at position 34 replaced by methionine, SEQ ID NO: 6 (protein, listed as Giardia lamblia)
chain: B1 chain with A34M
B6: GlaTgs2-WT: wild type trimethylguanosine synthase 2 from Giardia lamblia, 258 amino acids, SEQ ID NO: 1 (protein, listed as Giardia lamblia)
chain: B1 chain with A34V
B7: GlaTgs2-V34A, D76V: GlaTgs2 variant with exchanges V34A and D76V, SEQ ID NO: 9 (protein, listed as Giardia lamblia)
chain: B1 chain with D76V
B8: GlaTgs2-V34A, D76T: GlaTgs2 variant with exchanges V34A and D76T, SEQ ID NO: 8 (protein, listed as Giardia lamblia)
chain: B1 chain with D76L

Legend:
[1] = molecular target: T1, Giardia lamblia trimethylguanosine synthase 2 (GlaTgs2) variant GlaTgs2-V34A (V34A), SEQ ID NO: 4 (Giardia duodenalis, UniProt A8BW33, V34A); assay: Enzymatic parameters of GlaTgs2-V34A with respect to AdoPropen and AdoMet (HPLC-coupled activity assay); assay type: biochemical
T1 construct: HPLC-coupled cap N2 methyl/alkyl transfer assay with m7GpppA, helper enzymes MTAN and LuxS
Protocol: (§1) The transfer of the propenyl (AdoPropen), pentenynyl (AdoEnYn) and benzyl (AdoBenzyl) residues carried by the synthetically produced AdoMet analogues onto the N2 atom of the guanosine of m^7GpppA (A=adenine) enzymatically catalysed by the WT-GlaTgs2 (SEQ ID NO: 1) and the proteins of the invention in accordance with SEQ ID NOs: 4-10 was investigated with the aid of a HPLC-coupled activity assay.
(§2) Reaction buffer 2: 50 mM Tris; 10 mM MgCl2; 100 mM NH4OAc; pH 8.4
(§3) MTAN stands for 5′-methylthioadenosine/S-adenosylhomocysteine nucleosidase. LuxS stands for S-ribosylhomocysteine lyase.
(§4) The quantities were adjusted in proportion for larger samples of 10 or 20 μL. The quantity of AdoMet analogue used was matched such that the area of the peak in the chromatogram for a diastereoisomer of the AdoMet analogue corresponded to the area of the signal caused by m^7GpppA. The reaction was in general stopped directly after starting the reaction (t0) and after three hours at 37° C. (t180) and examined using analytical HPLC as well as MALDI-TOF.

[2] = system: C=CC[S+](CCC(N)C(=O)O)C[C@H]1O[C@@H](n2cnc3c(N)ncnc32)C(O)[C@H]1O; assay: Enzymatic parameters of GlaTgs2-WT with respect to AdoPropen (HPLC-coupled activity assay); assay type: biochemical, Giardia lamblia; settings: other: with respect to AdoPropen, pH 8.4, 37.0 °C
Protocol: as §1, §2, §3, §4

[3] = Thermostability (T50, 15 min incubation, residual activity, Boltzmann fit); assay type: physicochemical; settings: for T50 (thermostability): 15 minutes incubation, Table 4; for T50 (15 min): temperature at which enzyme loses 50% of its activity after 15 minutes incubation, Table 3
Protocol: The stability of a protein characterizes its ability to tolerate denaturing influences, such as an increase in the environmental temperature, within certain limits and to maintain the native conformation. The T50 value can be used as a measure of the thermostability.
is the temperature at which an enzyme loses 50% of its activity after 15 minutes incubation. In order to determine the T50 value, the protein to be analysed is heated for 15 minutes to different temperatures in a thermocycler while a sample of the protein is incubated on ice. Next, activity tests are carried out with the previously heated proteins. […] After normalizing the values,
can be obtained using a Boltzmann fit and “Origin” software.

[4] = system: m^7GpppA; assay: HPLC-coupled activity assay: enzymatic transfer of the residue of an AdoMet analogue onto N2 of the guanosine of m^7GpppA; assay type: biochemical; settings: for m^7GpppA transformed: same quantity of enzyme; for TTN: Total Turnover Number
Protocol: as §1, §2, §3, §4

[5] = with respect to AdoPropen, Table 3

Molecule | T50 (thermostability) [3] | TTN ([4]; AdoPropen, Table 2) | other results
C=CC[S+](CCC(N)C(=O)O)C[C@H]1O[C@@H](n2cnc3c(N)ncnc32)C(O)C1O (stereo in doubt) [AdoPropen, 5′-[(S)-[(3S)-3-amino-3-carboxypropyl]prop-2-enylsulphonio]-5′-deoxyadenosine] | – | – | affinity for AdoPropen ([1]; compared with the wild type enzyme GlaTgs2-WT): higher affinity; kcat ([1]; with respect to AdoPropen, GlaTgs2-V34A): 0.003 ± 0.0013 s⁻¹
Giardia lamblia trimethylguanosine synthase 2 (GlaTgs2-WT), wild type, SEQ ID NO: 1 (Giardia lamblia ATCC 50803) | – | – | Km [2]: 151 ± 19 μM μM; kcat [2]: 0.0015 ± 0.0013 s⁻¹
B1 | 40.4 ± 0.2 | 10 ± 2 | T50 (15 min) [3]: 40.4 ± 0.2 °C; transfer of benzyl ([4]; AdoBenzyl as AdoMet analogue): a transfer of benzyl was observed; m^7GpppA transformed ([4]; AdoEnYn): 10%; m^7GpppA transformed ([4]; AdoPropen): 95%; TTN [4, 5]: 10
B2 | 44.8 | 5 | –
B3 | – | 1 | –
B4 | – | 8 | –
B5 | 49.0 | 6 | –
B6 | 39.9 ± 0.2 | 3 ± 2 | T50 (15 min) [3]: 39.9 ± 0.2 °C; TTN [4, 5]: 3
B7 | – | 1 | –
B8 | – | 2 | –

Reference: patent publication US20160032257A1, “AGENT AND METHOD FOR MODIFYING THE 5' CAP OF RNA” (UNIVERSITÄT HAMBURG, priority 2012, published 2016)
